In experiment [1] the target is T1, human EGFRvIII-hFc protein (human, UniProt P00533 25-645).
T1 construct: extracellular domain; made in HEK293 cells, purified on protein A; also called immunogen A; hFc-tagged EGFRvIII protein; not shown: human IgG Fc fragment (hFc) of the pCpC vector
The experiment in a line: ELISA, plate coated with human EGFRvIII-hFc, HRP secondary antibody, absorbance at 450 nm. As for the experimental part: The purified immunogen A (EGFRvIII-hFc) obtained in example 1 (for the preparation method, see step (I) in example 1) is diluted with PBS to a final concentration of 1.0 μg/mL, and then added to a 96-well ELISA plate at 100 μl/well. The plate is sealed with a plastic film and incubated at 4° C. overnight. The next day, the plate is washed twice with a plate washing solution [PBS+0.01% (v/v) Tween20], and added with a blocking solution [PBS+0.01% (v/v) Tween20+1% (w/w) BSA] for blocking 2 hours at room temperature. […] The plate is incubated for 2 hours at 37° C., and then washed 3 times with the plate washing solution [PBS+0.01% (v/v) Tween20]. The plate is added with an HRP (horseradish peroxidase) labeled secondary antibody (purchased from Sigma), incubated at 37° C. for 2 hours, and then washed 3 times with the plate washing solution [PBS+0.01% (v/v) Tween20]. The plate is added with 100 μl of TMB substrate/well, incubated for 30 minutes at room temperature, and then added with 100 μl of stopping solution (1.0N HCl)/well. A450 nm value is read using an ELISA plate reader (SpectraMax 384plus, purchased from Molecular Device), and the results are shown in FIG. 11 and table 19.
(In general: An ELISA detects its analyte on a solid surface through an enzyme-linked reagent.)

Experiment [2] addresses T2, biotin-labeled recombinant EGFRvIII protein (UniProt P00533 25-645, biotin-labeled).
T2 construct: the construct is not described
The experiment in a line: competitive ELISA; competitor Murine anti-64F1. As for the experimental part: (§1) The purified antibodies to be tested are diluted with PBS to 1 μg/mL, coated onto a 96-well high-adsorption ELISA plate at 50 μL/well at 4° C. overnight, and then blocked with 250 μL of the blocking solution [PBS containing 0.01% (v/v) Tween20 and 1% (w/w) BSA] for one hour at room temperature, and each well is added with 0.05 μg/mL of the biotin-labeled recombinant EGFRvIII protein. Simultaneously, 5 μg/mL of the competitive antibody (i.e., the purified EGFRvIII antibody obtained in example 2) is added thereto, and incubated at 25° C.−37° C. for 1 to 2 hours. The plate is washed 3 times with the plate washing solution [PBS containing 0.01% (v/v) Tween20], and added with HRP (horseradish peroxidase) labeled streptavidin (purchased from Sigma). The plate is incubated for 0.5 hour at 37° C., and then washed 3 times with the plate washing solution [PBS containing 0.01% (v/v) Tween20]. The plate is added with 100 μL of TMB substrate/well, incubated for 30 minutes at room temperature, and then added with 100 μL of stopping solution (1.0N HCl)/well. A450 nm value is read using an ELISA plate reader (SpectraMax 384 plus, purchased from Molecular Device), and the results are shown in FIG. 6.

In experiment [3] the target is T3, human EGFRvIII protein on the surface of U87MG-hEGFRvIII cells (human, UniProt P00533 25-1210).
T3 construct: whole, on cells; Stably transfected U87MG cells; also called mutant EGFRvIII protein; U87MG-EGFRvIII
The experiment in a line: FACS on U87MG-hEGFRvIII cells.

Experiment [4] has as its target T2, biotin-labeled recombinant EGFRvIII …. The experiment in a line: competitive ELISA; competitor Murine anti-75G7. As for the experimental part: as §1
Experiment [5] has the same target. The experiment in a line: competitive ELISA; competitor Murine anti-63A10. The procedure:
as §1

Experiment [6] has the same target. The experiment in a line: competitive ELISA; competitor Control antibody 02. As for the experimental part:
as §1

Experiment [7] shares this target. The experiment in a line: competitive ELISA; competitor Control antibody 01. The procedure:
as §1

Experiment [8] shares this target. The experiment in a line: competitive ELISA; competitor Murine anti-7E5. As for the experimental part:
as §1

Experiment [9] concerns the target T3, human EGFRvIII protein on the surface …. The experiment in a line: immunohistochemical staining, human glioma tissue chip.
The target of experiment [10] is T4, wild-type human EGFR protein on the surface of cells (A431, HEB, U87MG) (human, UniProt P00533 25-1210).
T4 construct: whole, on cells; One molecule for all three cell lines; the cell line is named under assay; also called wild-type EGFR
The experiment in a line: FACS on A431 cells. As for the experimental part:
The collected cells are suspended to 2×10⁶ cells/mL with an FACS buffer (HBSS+1% BSA, with the percentage being the mass percentage), added to a 96-well FACS reaction plate at 100 μL/well, then added with 100 μL/well of the purified EGFRvIII antibody (samples to be tested) obtained in example 2, and incubated on ice for 2 hours. The plate is centrifugally washed twice with the FACS buffer, added with 100 μL/well of a fluorescence (Alexa 488) labeled secondary antibody (purchased from Invitrogen), and then incubated on ice for 1 hour. The plate is centrifugally washed 3 times with the FACS buffer, added with 100 μL/well of a fixing solution [4% (v/v) paraformaldehyde] for suspending the cells, and centrifugally washed twice with the FACS buffer after 10 minutes. The cells are suspended in 100 μL of the FACS buffer, and the results are detected and analyzed by FACS (FACS Calibur, purchased from BD). Data analysis is performed by using the software (CellQuest) to obtain the mean fluorescence intensity (MFI) of the cells. Data is further analyzed by using the software (GraphPad Prism5) to perform data fitting and calculate EC50. […] A431 cells (human epidermal cell cancer cell lines) have a large amount of wild-type EGFR protein expressed on the surface thereof. […] U87MG cells (human glioma cell lines) have a small amount of wild-type EGFR protein expressed on the surface thereof, while HEB cells (human glioma cell lines) have a high level of wild-type EGFR protein expression on the surface thereof.

B1: Chimeric antibody 75G7 (antibody, human IgG1, V domains shown)
VH: EVQLQQSGPELVKPGASVKIPCKASGYTFTDYNMDWVKQSHGKSLEWIGDINPNNGDTIYNQKFKGKATLTVDKSSSTAYMELRSLTSEDTAVYYCARGDYDGYYPVYYAMDYWGQGTSVTVSS
VL: ENVLTQSPAIMSASPGEKVTMTCRASSSVSSSYLHWYQQKSGASPKLWIFSTSNLAAGVPARFSGSGSGTSYSLTVSSVEAEDAATYYCQQYSGYPLTFGAGTKLELK
notes: also called c75G7C6; wild-type chimeric antibody c75G7C6
For orientation: EC50 (read off the curve) means the concentration that produces a half-maximal response. A high value points to a less potent agent. For B1, in experiment [1], the “EC50 (read off the curve)” value was roughly 0.05 nM.

B2: Murine anti-75G7 (antibody, V domains shown)
VH: EVQLQQSGPELVKPGASVKIPCKASGYTFTDYNMDWVKQSHGKSLEWIGDINPNNGDTIYNQKFKGKATLTVDKSSSTAYMELRSLTSEDTAVYYCARGDYDGYYPVYYAMDYWGQGTSVTVSS
VL: ENVLTQSPAIMSASPGEKVTMTCRASSSVSSSYLHWYQQKSGASPKLWIFSTSNLAAGVPARFSGSGSGTSYSLTVSSVEAEDAATYYCQQYSGYPLTFGAGTKLELK
notes: Mouse hybridoma antibody; also called 75G7C6
In general, EC50 refers to the concentration giving half of the maximal effect. Low readings indicate a more potent agent, high ones a less potent agent. Regarding B2, the competition rate was -3% in experiment [2]; 67% in experiment [4]; 9% in experiment [5]; -2% in experiment [6]; -5% in experiment [7]; 3% in [8]. This molecule also yielded an EC50 in [3] of 4.8 nM.

B3: Murine anti-7E5 (antibody, V domains shown)
VH: EIQLQQSGPELVKPGASVKVSCKASGYSFTDYNMYWVKQSHGKSLEWIGYVDPSNGGTNYNQKFKGKATLTVDKSSSTAFMHLNSLTSEDSAVYYCARGFFDYWGQGTTLTVSS
VL: DIVMTQSPSSLTVTAGEKVTMSCKSSQSLLNSGNQKNYLTWYQQKPGQPPKLLIYWASNRESGVPDRFTGSGSGKDFTLTISSVQAEDLAVYYCQNDYRYPVTFGAGTKLELK
notes: Mouse hybridoma antibody; also called 7E5-2A9; murine anti-7E5-2
B3: the competition rate in experiment [2] is 71%; in experiment [4], 23%; in [5], 70%; in experiment [6], 66%; in [7], -2%; in experiment [8] it was 85%. In addition, in experiment [9], the “positive samples of 70 GBM samples” value was 24 samples. Further, in experiment [3], the EC50 was 2.9 nM. In addition, in [10], the binding result is “no binding”.

B4: Chimeric antibody 64F1 (antibody, human IgG1, V domains shown)
VH: QVQLQQSGAELARPGASVKMSCKASGYTFSSYTMHWAKQRPGQGLEWIGYINPSSGYTKYNQKFKDKATLTADKSSSTAYMQLSSLTSEDSIVYYCARGGGRGFAYWGQGTLVTVSA
VL: QIVLTQSPAIMSASPGERVTMTCSASSSVSYMYWYQQKPGSSPRLLIYDTSNLASGVPVRFSGSGSGTSYSLTISRVEAEDAATYYCQQWSSYSLTFGAGTKLELK
notes: also called 64F1F8 (chimeric)
On to B4, for which the concentration for a half-maximal effect (EC50 (read off the curve)) in [1] is roughly 0.01 nM.

B5: Murine anti-64F1 (antibody, V domains shown)
VH: QVQLQQSGAELARPGASVKMSCKASGYTFSSYTMHWAKQRPGQGLEWIGYINPSSGYTKYNQKFKDKATLTADKSSSTAYMQLSSLTSEDSIVYYCARGGGRGFAYWGQGTLVTVSA
VL: QIVLTQSPAIMSASPGERVTMTCSASSSVSYMYWYQQKPGSSPRLLIYDTSNLASGVPVRFSGSGSGTSYSLTISRVEAEDAATYYCQQWSSYSLTFGAGTKLELK
notes: Mouse hybridoma antibody; also called 64F1F8
For the molecule B5, the competition rate in experiment [2] was 72%; in experiment [4] it was 13%; in experiment [5], 81%; in experiment [6], 69%; in experiment [7], -5%; in [8] it was 80%. In experiment [9], the “positive samples of 70 GBM samples” value is 24 samples. In addition, a half-maximal effect in [3] (EC50) was put at 2 nM.

B6: Murine anti-63A10 (antibody, V domains shown)
VH: QVQLQQSGAELARPGASVKMSCKASGYTFISFTMHWVKQRPGQGLEWIGYINPNSGYTKYNQKFKDKATLTAGQSSSTAYMQLSSLTSEDSAVYYCTRGGGRGFAYWGQGTLVTVSA
VL: DILMTQSPSSMSVSLGDTVTITCHASQDINSNIGWLQQKPGKSFKALIYHGTNLEDGVPSRFSGSGSGADYSLTISSLESEDFADYYCVQYAQFPFTFGSGTKLEIK
notes: Mouse hybridoma antibody; also called 63A10A7
In the case of B6, the competition rate was 73% in experiment [2]; 20% in experiment [4]; 89% in experiment [5]; 79% in experiment [6]; -3% in experiment [7]; 82% in experiment [8]. Besides, the “positive samples of 70 GBM samples” value in experiment [9] came out at 24 samples. The EC50 in experiment [3] was determined as 3.1 nM.

These data come from US20210032351A1 (XDCEXPLORER SHANGHAI, published 2021).
